Measurements reported in patent US20200239555A1 (STATEN BIOTECHNOLOGY B V, published 2020).

What was measured:
native human ApoC3 [1] = molecular target: T1, native human ApoC3 (human, UniProt P02656 21-99); experiment: SPR, IgG1 over ApoC3 on CM5 chip, pH 5.5
T1 construct: also called nhuApoC3; native huApoC3
Procedure: (§1) Based on the results in Example 1, test scFv-Fc antibodies were generated as human IgG₁ antibodies. An SPR-based assay was employed, in which human ApoC3 protein was immobilized on a CM5 chip, and the binding kinetics of test antibodies to the coated chip were measured at both pH 7.4 and pH 5.5. Briefly, a solution of 50 μg/ml of native human ApoC3 in 10 mM acetate buffer at pH 4.5 was prepared and injected until the surface density reached approximately 500 RU. 60 μl of each test antibody was diluted in HBS-EP buffer (GE, cat. nr. BR-1008-26; 0.010 M HEPES, 0.150M NaCl, 3 mM EDTA, 0.05% (v/v) surfactant P20, pH 7.4), and was injected at a concentration as described in Table 9. The test antibodies were passed through the flow cells at a flow rate of 30 μl/min, followed by an off-rate wash at pH 7.4 or pH 5.5 for 5 min. The resulting sensorgrams were analyzed using the BIAevaluation 4.1 software applying the Langmuir 1:1 binding model to derive binding kinetics. Data was zero adjusted and the reference cell sensorgrams were subtracted.

native human ApoC3 [2] = molecular target: T1, native human ApoC3; experiment: SPR, IgG1 over ApoC3 on CM5 chip, pH 7.4
Procedure: as §1

T1 sequence (P02656 21-99): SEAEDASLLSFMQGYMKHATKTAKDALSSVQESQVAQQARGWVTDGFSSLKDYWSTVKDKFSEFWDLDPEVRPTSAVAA

Row | Binder | koff (native human ApoC3 [1]) | kon (native human ApoC3 [1]) | koff (native human ApoC3 [2]) | kon (native human ApoC3 [2])
1 | 5E5VH5VH12_VLWT human IgG1 (antibody, V domains shown) VH: QLQLVESGGGLVQPGGSLRLSCAASGFTFGTYSMRWVRQVPRKALEWVSSIHTDGGGTAYRDSVKGRFTISRDNAKNTLYLQMNNLKPEDTAIYYCVIHGYSDWGQGTQVTVSS VL: ATMLTQSPGSLSVVPGESASISCKTSQGLVHSDGKTYFYWFLQKPGQSPQQLIYQVSNRASGVPDRFTGSGSGTDFTLKISGVKAEDAGVYYCAQGTYYPHTFGSGTRLEIK | 0.00316 s⁻¹ | 156000 M⁻¹ s⁻¹ | 0.000305 s⁻¹ | 61600 M⁻¹ s⁻¹
2 | 5E5VH5_VLWT human IgG1 (antibody, V domains shown) VH: QLQLVESGGGLVQPGGSLRLSCAASGFTFGTYSMRWVRQVPRKALEWVSSIHTDGGGTAYRDSVKGRFTISRDNAKNTLYLQMNNLKPEDTAIYYCVIAGYSDWGQGTQVTVSS VL: ATMLTQSPGSLSVVPGESASISCKTSQGLVHSDGKTYFYWFLQKPGQSPQQLIYQVSNRASGVPDRFTGSGSGTDFTLKISGVKAEDAGVYYCAQGTYYPHTFGSGTRLEIK | 0.000203 s⁻¹ | 155000 M⁻¹ s⁻¹ | 3.77e-05 s⁻¹ | 178000 M⁻¹ s⁻¹
3 | 5E5VH12_VL8 human IgG1 (antibody, V domains shown, Tested as human IgG1) VH: QLQLVESGGGLVQPGGSLRLSCAASGFTFGTYSMRWVRQVPRKALEWVSSISTDGGGTAYRDSVKGRFTISRDNAKNTLYLQMNNLKPEDTAIYYCVIHGYSDWGQGTQVTVSS VL: ATMLTQSPGSLSVVPGESASISCKTSQGLVHSDGKTYFYWFLQKPGQSPQQLIYQVSNRASGVPDRFTGSGSGTDFTLKISGVKAEDAGVYYCAHGTYYPHTFGSGTRLEIK | 0.00165 s⁻¹ | 188000 M⁻¹ s⁻¹ | 0.000163 s⁻¹ | 267000 M⁻¹ s⁻¹
4 | 5E5VHWT_VL8 human IgG1 (antibody, V domains shown) VH: QLQLVESGGGLVQPGGSLRLSCAASGFTFGTYSMRWVRQVPRKALEWVSSISTDGGGTAYRDSVKGRFTISRDNAKNTLYLQMNNLKPEDTAIYYCVIAGYSDWGQGTQVTVSS VL: ATMLTQSPGSLSVVPGESASISCKTSQGLVHSDGKTYFYWFLQKPGQSPQQLIYQVSNRASGVPDRFTGSGSGTDFTLKISGVKAEDAGVYYCAHGTYYPHTFGSGTRLEIK | 4.06e-05 s⁻¹ | 731000 M⁻¹ s⁻¹ | 2.84e-05 s⁻¹ | 782000 M⁻¹ s⁻¹
